Assay results reported in publication PMC11440508, “Dually Labeled Neurotensin NTS1R Ligands for Probing Radiochemical and Fluorescence-Based Binding Assays” (Journal of Medicinal Chemistry, 2024).
Several values for one entry are separate records, joined by “and”; a condition that tells them apart may be missing. Equal entries are not always repeated. Where two headings read alike, the source gives them in different places. One block for each substance: values may come before it.

Experiments:
NTS1R (Homo sapiens) [1] = target: NTS1R (Homo sapiens) (UniProt P30989); conditions: cited from earlier work
NTS1R (Homo sapiens) [2] = target: NTS1R (Homo sapiens) (UniProt P30989); assay: radioligand competition binding; conditions: cited from earlier work
[3] = target: neurotensin NT(8-13) 8-13 (Homo sapiens) (UniProt P30990); conditions: cited from earlier work
[4] = target: neurotensin NT(8-13) 8-13 (Homo sapiens) (UniProt P30990); assay: radioligand competition binding; conditions: cited from earlier work
[5] = target: human neurotensin receptor type 1 (hNTS1R), endogenous in HT-29 colon carcinoma cells (human (endogenous in HT-29)) (UniProt P30989); assay: radioligand binding; saturation binding of [^3H]UR-MK300 at intact HT-29 cells, 23 ± 1 °C
[6] = target: human neurotensin receptor type 2 (hNTS2R) in homogenates of HEK293T cells (human) (UniProt O95665); assay: radioligand binding; saturation binding of [^3H]UR-MK300 at homogenates of HEK293T-hNTS2R cells
Chain of human neurotensin receptor type 2 (hNTS2R) in homogenates of HEK293T cells (human) (O95665 whole entry): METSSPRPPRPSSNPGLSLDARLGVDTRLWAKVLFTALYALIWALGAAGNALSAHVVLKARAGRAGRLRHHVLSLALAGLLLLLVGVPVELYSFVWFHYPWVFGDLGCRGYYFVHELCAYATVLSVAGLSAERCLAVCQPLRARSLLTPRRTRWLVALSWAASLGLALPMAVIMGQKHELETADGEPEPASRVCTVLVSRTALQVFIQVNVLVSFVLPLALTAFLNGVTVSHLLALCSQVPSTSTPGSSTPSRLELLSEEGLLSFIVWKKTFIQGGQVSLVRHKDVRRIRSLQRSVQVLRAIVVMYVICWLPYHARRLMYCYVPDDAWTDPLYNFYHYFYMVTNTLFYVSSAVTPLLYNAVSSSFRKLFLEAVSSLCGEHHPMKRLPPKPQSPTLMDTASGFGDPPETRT

Chain of NTS1R (Homo sapiens) (P30989 whole entry): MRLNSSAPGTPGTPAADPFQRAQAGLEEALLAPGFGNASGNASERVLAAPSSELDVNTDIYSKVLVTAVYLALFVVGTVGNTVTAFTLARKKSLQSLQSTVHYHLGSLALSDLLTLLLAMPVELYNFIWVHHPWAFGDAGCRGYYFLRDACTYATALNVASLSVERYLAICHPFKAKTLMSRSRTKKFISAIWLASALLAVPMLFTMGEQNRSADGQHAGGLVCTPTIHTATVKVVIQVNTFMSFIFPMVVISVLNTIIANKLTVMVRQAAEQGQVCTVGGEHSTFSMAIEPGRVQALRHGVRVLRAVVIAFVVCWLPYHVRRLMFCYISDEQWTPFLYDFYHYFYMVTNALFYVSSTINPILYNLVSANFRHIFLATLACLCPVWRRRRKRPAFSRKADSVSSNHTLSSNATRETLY
Chain of NTS1R (P30989 whole entry): as above
Chain of NT(8–13) 8-13 (P30990 whole entry, looked up, tested part not stated): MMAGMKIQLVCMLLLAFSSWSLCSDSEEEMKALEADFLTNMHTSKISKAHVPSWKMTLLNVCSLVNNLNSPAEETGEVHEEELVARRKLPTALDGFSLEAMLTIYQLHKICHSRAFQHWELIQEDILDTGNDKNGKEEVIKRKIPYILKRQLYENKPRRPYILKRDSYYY
Chain of neurotensin NT(8-13) 8-13 (Homo sapiens) (P30990 whole entry, looked up, tested part not stated): as above
Chain of human neurotensin receptor type 1 (hNTS1R), endogenous in HT-29 colon carcinoma cells (human (endogenous in HT-29)) (P30989 whole entry): as the sequence (P30989 whole entry) above

Substance: NT(8–13) 8-13 (from UniProt P30990)
- Ki (NTS1R (Homo sapiens) [1]): 1 nM and 0.24 nM
- Ki (NTS1R (Homo sapiens) [2]): 0.14 nM

Substance: NTS1R (from UniProt P30989)
- Ki [3]: 1 nM and 0.24 nM and 0.29 nM
- Ki [4]: 0.14 nM

- Kd [5]: 0.41 nM
- Kd [6]: 0.75 nM
Substance: [^3H]UR-MK300 (peptide)
